From patent US10588946B2, “Peptide for promoting bone formation or inhibiting bone resorption and use thereof” (SEOUL NATIONAL UNIVERSITY R&DB FOUNDATION, priority 2015, dated 2020)
Entries after “also recorded” stand apart in the source; their conditions may differ. Where no end group is shown, it is not given here.

What was measured:
[1] = tested on: osteogenic cells; test: Adhesion inhibition assay (cell attachment to VnP-16 after preincubation); type: cell-based, human; details: 5 mM EDTA, 500 μM MnCl2, 100 μg/mL heparin, 10 μg/mL blocking antibody; VnP-16 9.1 μg/cm^2, 1 hour
Method: Cells (5×10^4 cells/250 μL) were preincubated with 5 mM EDTA, 500 μM MnCl2, 100 μg/mL heparin, and 10 μg/mL function-blocking antibodies against integrin α1 (FB12), α2 (P1E6), α3 (P1B5), α4 (P4C2), α5 (P1D6), α6 (NKI-GoH3), β3 (B3A; Chemicon), av (AV1), β1 (6S6; Millipore), or β3 (B3A) subunits at 37° C. for 15 minutes. […] The attached cells were quantified as described in Example 6.

[2] = tested on: osteogenic cells, NHDFs, NHOFs, MC3T3-E1, and NIH/3T3 cells; test: Cell viability assay (water-soluble tetrazolium salt, WST); type: cell-based, human; details: VnP-16 for 24 hours and 48 hours
Method: The viability of human osteogenic cells was analyzed using the EZ-Cytox cell viability assay kit (water-soluble tetrazolium salt (WST) assay; Daeillab). Osteogenic cells (3×10^3 cells/100 μL) were seeded on a 96-well microplate, adapted for 48 hours, and treated with 50 μg/mL, 100 μg/mL, or 200 μg/mL of VnP-16 at 37° C. for 24 hours or 48 hours. The WST reagent solution (10 μL) was added to each well of the 96-well microplate containing 100 μL of cells. The plate was incubated at 37° C. for 2 hours. The absorbance was measured at 450 nm using a microplate reader (BioRad).

[3] = tested on: mature osteoclasts; test: Viability of mature osteoclasts (surviving osteoclasts after TRAP staining); type: cell-based, mouse; details: 24 hours, 9.1 μg/cm^2
Method: The results of FIGS. 12b and 12c are expressed as mean±S.D. (n=4) ([…].)
Mature osteoclasts were cultured for 24 hours on Osteo Assay Surface plates precoated with vehicle (DMSO), SP (9.1 μg/cm^2), or VnP-16 (9.1 μg/cm^2), in the presence of M-CSF (30 ng/mL) and RANKL (100 ng/mL).

[4] = tested on: BMMs; test: Proliferation and viability of BMMs; type: cell-based, mouse; details: 9.1 μg/cm^2
[5] = tested on: osteoblast precursors and osteogenic cells
Method: SKP-derived mesenchymal cells (MSCs), mouse calvarial osteoblast precursors (MC3T3-E1), and human osteogenic cells (Osteogenic) were cultured on VnP-16 (9.1 μg/cm^2)-coated plates in osteogenic differentiation medium with or without PF-573228 (1 μM) for 2 weeks.
To visualize mineral deposits, cells were fixed with cold 95% ethanol for 30 minutes at −20° C. for 30 minutes and stained with 40 mM Alizarin red S solution (pH 4.2) for 1 hour. The stained cells were washed five times with DDW and rinsed with PBS for 15 minutes.

[6] = molecular target: FAK (Homo sapiens, UniProt Q05397); details: pretreated 1 hour; VnP-16 9.1 μg/cm^2
Chain of FAK (Q05397 whole entry): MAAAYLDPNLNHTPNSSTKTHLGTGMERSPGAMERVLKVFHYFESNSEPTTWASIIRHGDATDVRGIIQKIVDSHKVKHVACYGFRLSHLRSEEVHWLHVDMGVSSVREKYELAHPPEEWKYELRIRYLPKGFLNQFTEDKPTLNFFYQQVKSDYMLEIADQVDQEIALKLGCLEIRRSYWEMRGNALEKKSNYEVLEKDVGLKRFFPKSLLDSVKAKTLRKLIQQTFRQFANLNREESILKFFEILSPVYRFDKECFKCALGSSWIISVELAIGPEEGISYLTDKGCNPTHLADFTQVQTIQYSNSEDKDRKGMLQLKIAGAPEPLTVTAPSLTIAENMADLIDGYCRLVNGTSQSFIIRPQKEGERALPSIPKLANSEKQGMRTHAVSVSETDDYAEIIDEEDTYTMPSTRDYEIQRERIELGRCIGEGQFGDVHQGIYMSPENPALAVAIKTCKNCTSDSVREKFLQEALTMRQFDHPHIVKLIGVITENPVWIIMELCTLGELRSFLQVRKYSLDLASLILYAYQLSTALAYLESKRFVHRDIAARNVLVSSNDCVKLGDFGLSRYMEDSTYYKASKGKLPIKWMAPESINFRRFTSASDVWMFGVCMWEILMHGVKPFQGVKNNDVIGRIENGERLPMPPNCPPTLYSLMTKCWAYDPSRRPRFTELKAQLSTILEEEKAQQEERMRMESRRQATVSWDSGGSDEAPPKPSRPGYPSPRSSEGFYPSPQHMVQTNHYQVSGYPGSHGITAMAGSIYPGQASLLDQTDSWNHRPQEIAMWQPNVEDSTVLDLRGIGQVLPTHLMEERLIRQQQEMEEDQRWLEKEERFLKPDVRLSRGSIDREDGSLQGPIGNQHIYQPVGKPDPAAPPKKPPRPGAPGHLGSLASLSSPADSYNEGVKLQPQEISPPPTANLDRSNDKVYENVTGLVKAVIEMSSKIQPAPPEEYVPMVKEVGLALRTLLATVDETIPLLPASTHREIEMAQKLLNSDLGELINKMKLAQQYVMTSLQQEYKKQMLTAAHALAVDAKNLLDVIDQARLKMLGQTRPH

[7] = molecular target: T1, β1 integrin (Homo sapiens, UniProt P05556); test: Pulldown assay with biotinylated VnP-16; type: binding; details: human osteogenic cells and HOS cells, 3 hours; vs streptavidin beads alone
T1 construct: osteogenic cells that were transfected with a control (Con) siRNA (10 nM) or β1 integrin siRNA (10 nM); endogenous in cells; host or cells: human osteogenic cells differentiated from foreskin skin-derived precursors (SKPs)
T1 sequence (P05556 21-798): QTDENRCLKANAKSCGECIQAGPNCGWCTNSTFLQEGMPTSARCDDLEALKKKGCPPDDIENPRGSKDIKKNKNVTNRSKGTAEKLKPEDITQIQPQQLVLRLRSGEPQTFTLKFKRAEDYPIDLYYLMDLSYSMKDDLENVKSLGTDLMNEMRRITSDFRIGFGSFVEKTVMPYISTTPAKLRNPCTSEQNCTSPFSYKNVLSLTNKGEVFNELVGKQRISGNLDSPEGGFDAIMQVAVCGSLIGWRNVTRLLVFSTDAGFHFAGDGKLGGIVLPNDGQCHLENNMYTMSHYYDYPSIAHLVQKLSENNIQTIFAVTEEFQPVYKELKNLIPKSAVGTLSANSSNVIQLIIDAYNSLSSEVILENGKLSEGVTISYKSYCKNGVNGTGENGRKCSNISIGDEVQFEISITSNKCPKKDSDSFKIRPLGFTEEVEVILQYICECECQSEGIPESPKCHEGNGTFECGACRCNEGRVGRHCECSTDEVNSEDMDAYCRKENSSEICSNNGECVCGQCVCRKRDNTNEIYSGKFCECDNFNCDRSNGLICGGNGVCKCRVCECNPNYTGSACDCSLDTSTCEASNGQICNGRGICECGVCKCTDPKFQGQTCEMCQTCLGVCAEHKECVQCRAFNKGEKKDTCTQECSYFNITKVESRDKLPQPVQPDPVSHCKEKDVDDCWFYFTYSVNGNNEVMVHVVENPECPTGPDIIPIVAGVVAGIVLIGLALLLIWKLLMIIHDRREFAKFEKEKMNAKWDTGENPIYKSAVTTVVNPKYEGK
Method: Pulldown assays were performed using a biotinylated VnP-16 peptide according to a known method (Bottcher, R. T., Bio protocol 3, e962 (2013)). […] Cells (3×10^6) were seeded onto 100 mm culture dishes coated with biotin-conjugated VnP-16 peptides, incubated for 3 hours, and washed twice with cold PBS. The cells were scraped with 500 μL lysis buffer (50 mM Tris-HCl, pH 7.5, 150 mM NaCl, 0.1% Na-deoxycholate, 1% Triton X-100, protease, and phosphatase inhibitor cocktail tablets) followed by passing the lysates 15 times through a 26.5-gauge needle and centrifuging at 17,000×g for 10 minutes at 4° C. The supernatants of the cell lysates were incubated with 60 μL of streptavidin-agarose beads (Thermo Fisher Scientific, Waltham, Mass.) and centrifuged at 1,500×g for 2 minutes at 4° C. After washing the beads four times with lysis buffer, the precipitated proteins were resolved by 8% SDS-PAGE and analyzed by immunoblotting.

[8] = tested on: rat models with critical-size calvarial defects; test: Rat critical-size calvarial defect model; type: in vivo; details: collagen sponge implant, two weeks after surgery
Method: For critical-size calvarial defects, 8-week-old male Sprague-Dawley rats (n=5 rats/group) were used. VnP-16 was dissolved in DDW and SP in DMSO (5 mg/mL) and then diluted with DDW. Absorbable collagen sponges (Bioland) were loaded with human recombinant BMP-2 (4 μg/cm^2, 15 μL volume; PeproTech), synthetic peptides (1 mg/cm^2 and 2 mg/cm^2, 15 μL volume), or vehicle (10 μL of DMSO and 5 μL of DDW). The surgical procedures for the creation of an 8 mm circular defect in the parietal bone and implantation of the collagen sponge were performed as described in the reference (Lee, J. H., et al., Biomaterials, 31, 3512 to 3519 (2010)). The rats were euthanized at 2 weeks after surgery, and whole calvaria were fixed in 4% paraformaldehyde at 4° C. for 24 hours and analyzed by μCT scanning. Details for the μCT scans are illustrated below.
For histomorphometric analysis, the specimens were decalcified with 12% EDTA for 4 weeks and embedded in paraffin. […] The mice were sacrificed on day 7, and the whole calvariae were dissected, cleaned of soft tissue, fixed in 4% paraformaldehyde at 4° C. for 24 hours, subjected to TRAP staining, and then analyzed by μCT scanning. μCT was performed with the Micro-CT Skyscan 1172 system (70 kV, 141 μA, and 38 minutes integration time; Skyscan). […] The regenerated bone volume and bone mineral content were calculated with CT Analyser version 1.14.4.1 (Bruker-microCT). […]

[9] = tested on: osteogenic cells; test: Cell spreading assay on coated plates; type: cell-based, human; details: serum-free medium, 3 hours
Excerpt: (§1) Plates were gently washed three times with PBS.

[10] = tested on: osteogenic cells; test: Cell migration assay (transwell); type: cell-based, human; details: 24 hours
Method: Cell migration assays were performed with transwell migration chambers (pore size, 8 μm; Corning). […] Cells (2×10^5 cells/mL) were resuspended in DMEM containing 0.5% FBS and 0.1% BSA. This suspension (100 μL) was seeded in the upper chamber of a transwell filter. After seeding the […] (100 μL) to the upper chamber of the transwell migration chambers, the cells were allowed to migrate at 37° C. for 24 hours. Cells were then fixed with 10% formalin for 15 minutes and stained with 0.5% crystal violet. Unmigrated cells, those remaining in the upper side of the transwell filter, were removed with a cotton swab and counted under light microscopy. Cell migration was quantified by counting the number of cells that had migrated through the filter.

[11] = tested on: human osteogenic cells; test: Cell attachment assay on coated plates; type: cell-based; details: for coating concentration at which cell attachment activity reached a maximum level: osteogenic cells, dose-response; for cell attachment activity of osteogenic cells: substrate-coated plates, serum-free medium, 1 hour
Excerpt: as §1

[12] = VnP-16-coated plates, osteogenic differentiation medium, PF-573228 1 μM, 2 weeks

## O=C(O)CN(CCN(CC(=O)O)CC(=O)O)CC(=O)O [EDTA]
[1]
  cell attachment to VnP-16 after pretreatment of cells: completely inhibited

## RVYFFKGKQYWE-NH2 [VnP-16, RVYFFKGKQYWE (SEQ ID NO: 17)]
[2]
  viability of cells or cell lines tested: did not affect
[3]
  viability of osteoclasts: no effect
[4]
  cell proliferation and viability of BMMs: did not affect

## CS(=O)(=O)c1cccc(CNc2nc(Nc3ccc4c(c3)CCC(=O)N4)ncc2C(F)(F)F)c1 [PF-573228]
[5]
  cell growth: did not affect
[5]; [12]
  alkaline phosphatase (ALP) activity: notably weakened
  calcium deposition: reduced
[6]
  cell attachment to VnP-16 after pretreatment of PF-573228: significantly inhibited in a dose-dependent manner

## biotinylated VnP-16: biotin-conjugated VnP-16 peptide used for pulldown (RVYFFKGKQYWE-NH2; also: biotinylated)
[7]
  binding of β1 integrin in pulldown: selectively bound

## [Cl][Mn][Cl] [Mn^2+, MnCl2]
[1]
  cell attachment to VnP-16 after pretreatment of cells: significantly enhanced

## FVWRQFYKYEKG (SEQ ID NO: 23) (Scrambled peptide) [SP, scrambled peptide used as control, reference compound]
[8]
  new bone formation in calvarial defects (μCT images): only limited new bone formation
[9]
  cell spreading: ineffective

## heparin
[1]
  cell attachment to VnP-16 after pretreatment of cells: not inhibited

B1: rVn-FI: recombinant human vitronectin truncation I expressed in E. coli (protein)
chain: DQESCKGRCTEGFNVDKKCQCDELCSYYQSCCTDYTAECKPQVTRGDVFTMPEDEYTVYDDGEEKNNATVHEQVGGPSLTSDLQAQSKGNPEQTPVLKPEEEAPAPEVGASKPEGIDSRPETLHPGRPQP
modifications: rVn-FI
notes: recombinant human vitronectin truncation I expressed in E. coli
[10]
  cell migration: induced cell spreading and migration
[11]
  coating concentration at which cell attachment activity reached a maximum level: about 5.7 μg/cm^2
  cell attachment activity of osteogenic cells: adhered; also recorded: promoted cell attachment, although to a lower extent than full-length vitronectin
[9]
  cell spreading: induced cell spreading and migration

B2: human plasma vitronectin: Human vitronectin purchased from Millipore (protein, UniProt P04004 20-478, looked up)
Vitronectin: DQESCKGRCTEGFNVDKKCQCDELCSYYQSCCTDYTAECKPQVTRGDVFTMPEDEYTVYDDGEEKNNATVHEQVGGPSLTSDLQAQSKGNPEQTPVLKPEEEAPAPEVGASKPEGIDSRPETLHPGRPQPPAEEELCSGKPFDAFTDLKNGSLFAFRGQYCYELDEKAVRPGYPKLIRDVWGIEGPIDAAFTRINCQGKTYLFKGSQYWRFEDGVLDPDYPRNISDGFDGIPDNVDAALALPAHSYSGRERVYFFKGKQYWEYQFQHQPSQEECEGSSLSAVFEHFAMMQRDSWEDIFELLFWGRTSAGTRQPQFISRDWHGVPGQVDAAMAGRIYISGMAPRPSLAKKQRFRHRNRKGYRSQRGHSRGRNQNSRRPSRATWLSLFSSEESNLGANNYDDYRMDWLVPATCEPIQSVFFFSGDKYYRVNLRTRRVDTVDPPYPRSIAQYWLGCPAPGHL
[10]
  cell migration: strongly promoted
[11]
  cell attachment activity of osteogenic cells: strongly promoted
[9]
  cell spreading: strongly promoted

B3: rVn-FII: recombinant human vitronectin truncation, 173 residues, amino acids at positions 150 to 322 (protein)
chain: PAEEELCSGKPFDAFTDLKNGSLFAFRGQYCYELDEKAVRPGYPKLIRDVWGIEGPIDAAFTRINCQGKTYLFKGSQYWRFEDGVLDPDYPRNISDGFDGIPDNVDAALALPAHSYSGRERVYFFKGKQYWEYQFQHQPSQEECEGSSLSAVFEHFAMMQRDSWEDIFELLFW
modifications: rVn-FII
[10]
  cell migration: induced no cell spreading or migration
[11]
  coating concentration at which cell attachment activity reached a maximum level: about 5.7 μg/cm^2
  cell attachment activity of osteogenic cells: lower cell attachment activity compared to that of rVn-FI; also recorded: adhered; also recorded: promoted cell attachment, although to a lower extent than full-length vitronectin; also recorded: significant cell attachment activity
[9]
  cell spreading: induced no cell spreading or migration

B4: rVn-FIII: recombinant human vitronectin truncation III expressed in E. coli (protein)
chain: GRTSAGTRQPQFISRDWHGVPGQVDAAMAGRIYISGMAPRPSLAKKQRFRHRNRKGYRSQRGHSRGRNQNSRRPSRATWLSLFSSEESNLGANNYDDYRMDWLVPATCEPIQSVFFFSGDKYYRVNLRTRRVDTVDPPYPRSIAQYWLGCPAPGHL
modifications: rVn-FIII
notes: recombinant human vitronectin truncation III expressed in E. coli
[10]
  cell migration: induced no cell spreading or migration
[11]
  cell attachment activity of osteogenic cells: did not adhere
[9]
  cell spreading: induced no cell spreading or migration
